The chains are these.
B1: LyPls-PLD (lysoplasmalogen-specific phospholipase D) (Thermocrispum sp. RD004668; F211L) (protein)
chain: TTRTTDNPWLDARVLNMAHAGGENEAPANTLYAFKRAVKLGANMLELDVQSTKDDQLVVIHNATVDQTTDGTGKVRDLTFEQVHELDAAYNFIPGRHAVPGEPPESYPLRGVRTGEKKPPPGYQPSDFAIPKLADVLEAFPRTPINIEIKGTSDADIPSFLHNAKLLARLLKKTGRTDFIVTSLNDLAVAKFHLLAPDIPIAPGMAGLAAYFLLGVKPMHGTVALQIPVRYQGLEIATPEFIRRAHADGYAVHVWFSGTAPDDEATYNRIIDSCADGLMPAYPALLERILDERGIERPGRPGVDPCG
notes: recombinant from pET24/lpls-pld in E. coli BL21(DE3); purified on HisTrap HP
B2: LyPls-PLD (lysoplasmalogen-specific phospholipase D) (Thermocrispum sp. RD004668; N173A) (protein)
chain: B1 chain with N146A, L184F
notes: as for B1
B3: LyPls-PLD (lysoplasmalogen-specific phospholipase D) (Thermocrispum sp. RD004668) (protein)
chain: B1 chain with L184F
notes: as for B1
B4: LyPls-PLD (lysoplasmalogen-specific phospholipase D) (Thermocrispum sp. RD004668; M71G) (protein)
chain: B1 chain with M44G, L184F
notes: as for B1
B5: LyPls-PLD (lysoplasmalogen-specific phospholipase D) (Thermocrispum sp. RD004668; W282G) (protein)
chain: B1 chain with L184F, W255G
notes: as for B1
B6: LyPls-PLD (lysoplasmalogen-specific phospholipase D) (Thermocrispum sp. RD004668; F211C) (protein)
chain: B1 chain with L184C
notes: as for B1
B7: LyPls-PLD (lysoplasmalogen-specific phospholipase D) (Thermocrispum sp. RD004668; F211T) (protein)
chain: B1 chain with L184T
notes: as for B1

Data on seven proteins can be found in publication PMC8016129, “Switching the substrate specificity of lysoplasmalogen‐specific phospholipase D” (FEBS Open Bio, 2021).

Substitutions are numbered along the chain they refer to. In names and notes the source's numbering stands.

Substrate in one data set: CCCCCCCCCCCCCCCC/C=C\OC[C@@H](O)COP(=O)([O-])OCC[N+](C)(C)C
The data set is described as follows: released choline by choline oxidase/peroxidase colorimetric assay, Michaelis-Menten fit. The format is biochemical, Thermocrispum sp. RD004668. The conditions noted are these: pH 8.0, 50 °C, 1 min, 2 mM CaCl2, substrate micelles. The source says:
(§1) released choline by choline oxidase/peroxidase colorimetric assay, Michaelis-Menten fit on LyPls-PLD (lysoplasmalogen-specific phospholipase D)
Consider B1, for which the Michaelis-Menten constant (Km) is 76.7 ± 12.6 µM, the turnover number (kcat) was 21 ± 0.91 s⁻¹ and the specificity constant (kcat/Km) is 271000 ± 46000 M⁻¹ s⁻¹.
For the protein B2, the Km amounted to 200 ± 42.3 µM, the kcat is 42 ± 3.9 s⁻¹ and the specificity constant (kcat/Km) turned out to be 212000 ± 49000 M⁻¹ s⁻¹.
Turning to B3, the Michaelis constant (Km) came to 88.9 ± 8.76 µM, the kcat worked out at 122 ± 3.47 s⁻¹ and the kcat/Km is 1.37e+06 ± 141000 M⁻¹ s⁻¹.
On to B4, for which the Km was 64.8 ± 4.18 µM, the kcat was found to be 57 ± 2.5 s⁻¹ and the specificity constant (kcat/Km) is 880000 ± 68500 M⁻¹ s⁻¹.
As to B5, the Michaelis-Menten constant (Km) amounted to 286 ± 51.7 µM, the catalytic constant (kcat) was determined as 10.5 ± 0.95 s⁻¹ and the catalytic efficiency (kcat/Km) amounted to 36000 ± 7250 M⁻¹ s⁻¹.

Substrate in the next data set: CCCCCCCCCCCCCCCCOC[C@@H](O)COP(=O)([O-])OCC[N+](C)(C)C
The data set is described as above. The conditions noted are these: pH 8.0, 50 °C, 1 min, 2 mM CaCl2, substrate micelles. The format is biochemical, Thermocrispum sp. RD004668.
Description: as §1
Turning to B1, the Michaelis-Menten constant (Km) turned out to be 26.8 ± 8.55 µM, the kcat was 187 ± 6.3 s⁻¹ and the kcat/Km came to 6.97e+06 ± 2.24e+06 M⁻¹ s⁻¹.
B2: the Km came to 110 ± 17.1 µM, the turnover number (kcat) was 106 ± 4.0 s⁻¹ and the kcat/Km is 965000 ± 153000 M⁻¹ s⁻¹.
In the same order, the values of B6 are 52.2 ± 9.44 µM, 207 ± 15 s⁻¹ and 3.96e+06 ± 769000 M⁻¹ s⁻¹.
As to B3, the Michaelis-Menten constant (Km) is 56.4 ± 16.9 µM, the kcat amounted to 74 ± 4.9 s⁻¹ and the kcat/Km came out at 1.3e+06 ± 400000 M⁻¹ s⁻¹.
In the same order, the values of B4 are 69.3 ± 10.2 µM, 72 ± 2.9 s⁻¹ and 1.04e+06 ± 159000 M⁻¹ s⁻¹.
In the case of B5, the Km was 71.7 ± 5.26 µM, the kcat worked out at 4.4 ± 0.082 s⁻¹ and the kcat/Km stood at 60900 ± 4630 M⁻¹ s⁻¹.
Take B7: the Km was 40.6 ± 5.49 µM, the catalytic constant (kcat) amounted to 205 ± 8.9 s⁻¹ and the kcat/Km was determined as 5.06e+06 ± 720000 M⁻¹ s⁻¹.
